# B1: Proliferating cell nuclear antigen (Saccharomyces cerevisiae), P15873 (parent)
# chain: MLEAKFEEASLFKRIIDGFKDCVQLVNFQCKEDGIIAQAVDDSRVLLVSLEIGVEAFQEYRCDHPVTLGMDLTSLSKILRCGNNTDTLTLIADNTPDSIILLFEDTKKDRIAEYSLKLMDIDADFLKIEELQYDSTLSLPSSEFSKIVRDLSQLSDSINIMITKETIKFVADGDIGSGSVIIKPFVDMEHPETSIKLEMDQPVDLTFGAKYLLDIIKGSSLSDRVGIRLSSEAPALFQFDLKSGFLQFFLAPKFNDEE
# partner: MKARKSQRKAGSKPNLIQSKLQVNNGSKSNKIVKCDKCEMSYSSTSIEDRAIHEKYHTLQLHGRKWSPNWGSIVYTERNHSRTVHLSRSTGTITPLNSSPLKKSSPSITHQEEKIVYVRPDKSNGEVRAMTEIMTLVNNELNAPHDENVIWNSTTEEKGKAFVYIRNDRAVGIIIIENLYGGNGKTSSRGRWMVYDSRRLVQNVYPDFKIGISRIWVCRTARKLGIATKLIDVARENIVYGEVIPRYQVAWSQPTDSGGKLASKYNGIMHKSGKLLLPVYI
# B2: Proliferating cell nuclear antigen (Saccharomyces cerevisiae), P15873 (parent)
# chain: B1 chain
# B3: ATP-dependent DNA helicase SRS2 (Saccharomyces cerevisiae), P12954 (parent)
# chain: MSSNNDLWLHLVSQLNTQQRAAALFDYTRGLQVIAGPGTGKTKVLTSRVAYLILHHHIHPRDIIVTTFTNKAANEMKERLQEMLRGAGVNISELLIGTFHSICLKILYRFGHLVDLQKDWRIIDEKEIDVILDDMIEKVPDQIRDYASSITRKVNLCMPSKNGDEWTIHPKLIKKQISKLKSNAILPEEYILDSNHDAALGYFYQIYQSELSKKNTLDFDDLLMYTFRLLTRVRVLSNIKHVLVDEFQDTNGIQLDLMFLFAKGNHHLSRGMTIVGDPDQSIYAFRNALAHNFLEMGRKCPIEYSTIILVENYRSSQKILNTSEILITQQNKGRQNRAPLRAQFDLDFPPVYMNFPAYFLEAPSLVRELLYLKALPNLFTFNDFAILVRQRRQIKRIESALIEHRIPYKIIRGHSFWDSKETRAMLNLLKLIFSPNDKHAILASLLYPARGLGPATGEKIKNALDTLATDVSCFQILKDISSKKIMLDIPTKGRSVIADFISMIENCQLLLQSTLLGGLSDLFDKLYELSGLKYEYLYKDGKKKNDQLEKSEPNLLNARHKNIELLKNYFLALLSKSESSDKEKNEAIKAATDEAEPIENKVITPKEYLRNFFNSLSLHSDAAEEEESESNKDAKIKREKNGFVTISTIHGAKGLEWPVVFIPGCEEGIIPCVFNDDKKDESEEDEEEDQENSKKDASPKKTRVLSVEDSIDEERRMFFVAQTRAKYLLYLSNTVTVEDVDRPRIASRFLTTDLIKAMSDSQKLFESTNSIKKLYRILNKKPPAEDDKLFSLDQLRKDYNQFIENRRERMIWQGIQMNDVYGIQLSRNKLLGSVSDFTSAADQLRLETQNSIFPQKKLIEKSRPSKINGNYAPKSRVKSPEKRYAPETTSFHSPTKKKVYAPQYVSTTNVPSRQEFHSSTGKNIPFLRREDRSITDISPRSSTRSLKGASPNKTSHMSDDLMRPSPTRKDKVTRNIHFATAGTFRIETQSNVDELHPPEYSNKSGQSLTSSEFSGFSSACSNSDQPTNLIEDINNELDLSDEELLNDISIERRRELLGSKKTKKIKPKTRNRKSKRGDKVKVEEVIDLKSEFEEDDSRNTTAAELLHNPDDTTVDNRPIISNAKFLADAAMKKTQKFSKKVKNEPASSQMDIFSQLSRAKKKSKLNNGEIIVID
# Variants of: B1
# Details: with eco1_yeast ECO1, P43605
row,effect of a mutation on the interaction,Variant
1,decreasing interaction,F125A;L126A;K127A;I128A

# Variants of: B2
# Details: with srs2_yeast SRS2, P12954
row,effect of a mutation on the interaction,Variant
1,decreasing interaction,F125A;L126A;K127A;I128A

# Variants of: B3
# Details: with pcna_yeast POL30, P15873
row,Variant,effect of a mutation on the interaction
1,D1151A,decreasing interaction
2,Q1149E,decreasing interaction
3,Q1149E;I1152A,decreasing interaction
4,I1152A,decreasing interaction

# Results, then the variant that gave them:
row,effect of a mutation on the interaction,Variant
1,decreasing interaction,F1153A
2,decreasing interaction,Q1155E
3,decreasing interaction,I1152A;L1156A
4,decreasing interaction,L1156A

# Variants of: B3
# Details: with smt3_yeast SMT3, Q12306
# smt3_yeast SMT3, Q12306, sequence (Q12306 whole entry): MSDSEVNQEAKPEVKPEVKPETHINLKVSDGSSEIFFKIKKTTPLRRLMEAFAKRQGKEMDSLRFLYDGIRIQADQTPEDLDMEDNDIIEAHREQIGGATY
row,Variant,effect of a mutation on the interaction
1,Q1149E;I1152A,decreasing interaction
2,I1152A,decreasing interaction

# Continued, values first:
row,effect of a mutation on the interaction,Variant
1,decreasing interaction,I1152A;L1156A
2,decreasing interaction,L1156A
